Source: patent EP1192182B1, “PITUITARY ADENYLATE CYCLASE ACTIVATING PEPTIDE (PACAP) RECEPTOR 3 (R3) AGONISTS AND THEIR PHARMACOLOGICAL METHODS OF USE” (priority 1999, dated 2001)
Non-standard residues stand in square brackets, D forms with d. No end group written: not given here. Nle = CCCC[C@H](N)C(=O)O

T1: PACAP-R3 (human, UniProt P41587 24-438)
T1 sequence (looked up): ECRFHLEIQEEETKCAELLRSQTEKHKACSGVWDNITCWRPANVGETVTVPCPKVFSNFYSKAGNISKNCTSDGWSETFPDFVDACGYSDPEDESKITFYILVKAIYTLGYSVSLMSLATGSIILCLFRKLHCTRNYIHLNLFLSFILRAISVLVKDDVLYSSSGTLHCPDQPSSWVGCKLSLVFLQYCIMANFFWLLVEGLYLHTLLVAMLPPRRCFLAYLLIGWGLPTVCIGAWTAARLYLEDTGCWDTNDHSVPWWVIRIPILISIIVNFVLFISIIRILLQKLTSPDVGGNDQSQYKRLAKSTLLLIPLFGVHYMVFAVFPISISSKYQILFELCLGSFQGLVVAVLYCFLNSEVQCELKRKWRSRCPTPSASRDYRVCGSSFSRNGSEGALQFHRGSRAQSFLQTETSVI

T2: human PACAP/VIP R2 (PACAP R3) receptor (human, UniProt P41587 24-438)
T2 sequence (looked up): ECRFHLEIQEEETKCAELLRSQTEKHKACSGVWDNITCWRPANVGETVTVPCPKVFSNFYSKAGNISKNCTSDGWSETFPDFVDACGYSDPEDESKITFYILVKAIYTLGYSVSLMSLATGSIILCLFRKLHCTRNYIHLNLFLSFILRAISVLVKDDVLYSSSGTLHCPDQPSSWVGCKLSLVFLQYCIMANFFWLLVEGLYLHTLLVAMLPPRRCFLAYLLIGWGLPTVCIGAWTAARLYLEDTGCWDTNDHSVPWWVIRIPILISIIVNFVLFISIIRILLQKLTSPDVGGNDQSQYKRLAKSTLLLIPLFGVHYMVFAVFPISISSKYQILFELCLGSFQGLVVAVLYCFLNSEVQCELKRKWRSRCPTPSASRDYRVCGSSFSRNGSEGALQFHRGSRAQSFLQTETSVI


Assays:
PACAP-R3 = target: T1, PACAP-R3; assay: cell-based or functional assay
[1] = target: T2, human PACAP/VIP R2 (PACAP R3) receptor; assay: cell-based or functional assay

| Binder | R3 Selectivity (PACAP-R3) [ratio] | R3 EC50 (PACAP-R3) [nM] | other results |
| --- | --- | --- | --- |
| HSDAVFTDNYTRLRKQMAAKKYLNSIKNMR [R3P142] | 30 | – | – |
| HSDAVFTDNYTRLRKQMAAKKYLNSIKNNR [R3P143] | 30 | 0.2 | – |
| HSDAVFTDNYTRLRKQMAAKKYLNSIKNPR [R3P144] | 100 | 3 | – |
| HSDAVFTDNYTRLRKQMAAKKYLNSIKNQR [R3P145] | 100 | 0.5 | – |
| HSDAVFTDNYTRLRKQMAAKKYLNSIKNRR [R3P146] | 100 | 0.3 | – |
| HSDAVFTDNYTRLRKQMAAKKYLNSIKNSR [R3P147] | 500 | 0.2 | – |
| HSDAVFTDNYTRLRKQMAAKKYLNSIKNTR [R3P148] | 100 | 0.3 | – |
| HSDAVFTDNYTRLRKQMAAKKYLNSIKNVR [R3P149] | 80 | 0.5 | – |
| HSDAVFTDNYTRLRKQMAAKKYLNSIKNWR [R3P150] | 50 | 0.8 | – |
| HSDAVFTENYTKLRKQLAAKKYLNDLKKGGTSWCEPGWCR [R3P19] | 30 | – | – |
| HSDAVFTDNYTRLRKQMAAKKYLNSIKNKD [R3P153] | 200 | 0.2 | – |
| HSDAVFTDNYTRLRKQMAAKKYLNSIKNKE [R3P155] | 100 | 0.4 | – |
| HSDAVFTDNYTRLRKQMAAKKYLNSIKNKF [R3P156] | 100 | 1 | – |
| HSDAVFTDNYTRLRKQMAAKKYLNSIKNKG [R3P157] | 170 | 0.3 | – |
| HSDAVFTDNYTRLRKQMAAKKYLNSIKNKH [R3P158] | 90 | 0.07 | – |
| HSDAVFTDNYTRLRKQMAAKKYLNSIKNKI [R3P159] | 400 | 0.5 | – |
| HSDAVFTDNYTRLRKQMAAKKYLNSIKNKK [R3P160] | 500 | – | – |
| HSDAVFTDNYTRLRKQMAAKKYLNSIKNKL [R3P161] | – | 0.2 | – |
| HSDAVFTDNYTRLRKQMAAKKYLNSIKNKN [R3P163] | 200 | 0.2 | – |
| HSDAVFTDNYTRLRKQMAAKKYLNDIKKGGT [R3P20] | 230 | – | – |
| HSDAVFTDNYTRLRKQMAAKKYLNSIKNKP [R3P164] | – | 0.3 | – |
| HSDAVFTDNYTRLRKQMAAKKYLNSIKNKQ [rR3P165] | – | – | R3 EC50, nM (cAMP SPA) [1]: 0.5 nM |
| HSDAVFTDNYTRLRKQMAAKKYLNSIKNKT [rR3P167] | – | – | R3 EC50, nM (cAMP SPA) [1]: 1 nM |
| HSDAVFTDNYTRLRKQMAAKKYLNSIKNKW [rR3P169] | – | – | R3 EC50, nM (cAMP SPA) [1]: 0.2 nM |

| Binder | R3 Selectivity (PACAP-R3) [ratio] | R3 EC50 (PACAP-R3) [nM] | other results |
| --- | --- | --- | --- |
| HSDAVFTDNYTRLRKQVAAKKYLQSIKNKRYSWCEPGWCR [rR3P171] | – | – | R3 EC50, nM (cAMP SPA) [1]: 0.4 nM; R3 Selectivity [1]: 200 ratio |
| HSDAVFTDDYTRLRKEVAAKKYLESIKDKRY [R3P172] | – | – | R3 EC50, nM (cAMP SPA) [1]: 2.6 nM; R3 Selectivity [1]: 29 ratio |
| ESDGIFTDSYSRYRKQMAVKKYLAAVL [R3P173] | – | – | R3 EC50, nM (cAMP SPA) [1]: 200 nM |
| HSDAVFTDNYTRLRKQLAVKKYLNDIKKGGT [R3P21] | 60 | – | – |
| HSDAVFTDNYTRLRKQLAAKKYLNSIKKGGT [R3P22] | 24 | – | – |
| HSDAVFTDNYTRLRKQLAAKKYLNDIKNGGT [R3P24] | 34 | – | – |
| HSDAVFTDNYTRLRKQMAAKKYLNSIKNRI-NH2 [PAC27] | – | – | R3 EC50, nM (cAMP SPA) [1]: 1.1 nM; R3 Selectivity [1]: 1.4 ratio |
| HSDAVFTDNYTRLRKQLAVKKYLNSIKKGGT [R3P25] | 20 | – | – |
| Ac-HSDAVFTENYTKLRKQ[Nle]AAKKYLNDLKKGGT-NH2 [R3P0] | > 250 | – | – |
| HSDAVFTDNYTRLRKQMAAKKYLNSIKKGGT [R3P26] | > 180 | – | – |
| HSDAVFTDNYTRLRKQLAVKKYLNDIKNGGT [R3P29] | > 200 | – | – |
| HSDAVFTDNYTRLRKQLAAKKYLNSIKNGGT [R3P30] | 50 | – | – |
| HSDAVFTDNYTRLRKQLAAKKYLNDIKKGG [R3P31] | > 300 | – | – |
| HSDAVFTDNYTRLRKQLAAKKYLNDIKKG [R3P32] | 200 | – | – |
| HSDAVFTDNYTRLRKQLAAKKYLNDIKK [R3P33] | > 200 | – | – |
| HSDAVFTDNYTRLRKQLAAKKYLNDIKKQ [R3P34] | > 70 | – | – |
| HSDAVFTDNYTRLRKQLAAKKYLNDIKKNQ [R3P35] | > 40 | – | – |
| HSDAVFTDNYTRLRKQLAAKKYLNDIKKKRY [R3P36] | > 200 | – | – |
| HSDAVFTDNYTRLRKQMAVKKYLNSIKK [R3P41] | 100 | – | – |
| Ac-HSDAVFTENYTKLRKQLAAKKYLNDLKKGGT-NH2 [R3P1] | > 50 | – | – |
| HSDAVFTDNYTRLRKQMAVKKYLNSIKN [R3P42] | 10 | – | – |
| HSDAVFTDNYTRLRKQMAVKKYLNSILK [R3P43] | 10 | – | – |
| HSDAVFTDNYTELRKQMAVKKYLNSILN [R3P44] | 6 | – | – |
